# Test results: the RNAGym collection of RNA variant scans (doi:10.7554/elife.90254)
# B1: OR4K15 (parent)
# chain: GUUAACGGUCAUAGGCCAUGGAAACUAGGAGCACCAUUUCGCUGCCAGUGAAGAAAUGAACAAAGAAAAUCUGGGCCAGGCAGGCAUCAAAAGAAAUAGUCUUGCGCUCAACCAGAAAGUCUGUAAUCAUUUUAAGGGUA
# Variants of: B1
# Experiment: self-cleavage, relative activity (ratio to wild type); higher = more cleavage; in vitro, sequencing; the parent is a self-cleaving ribozyme
row,Variant,self-cleavage
1,A54G A140G,2.22
2,A54U A98G,0.2
3,A55U U122A,0.96
4,A56G A89U,1.09
5,A54G A135U,0.73
6,A54G A135G,1.13
7,A55U A62G,0.23
8,A55U A125G,0.35
9,A56G U102A,0.97
10,A55G A89U,1.55
11,A55G A89G,0.59
12,A56C A118G,0.63
13,U57A A125U,1.1
14,A55G C128A,1.06
15,A55G A135G,1.57
16,A55G G83A,0.71
17,U57A A91G,0.54
18,A54U G106A,0.02
19,A55G A116U,0.27
20,A55G G74U,0.1
21,A54U A69G,0.53

row,Variant,self-cleavage
1,A55G C109U,0.82
2,U57C A117C,0.7
3,A55C G79A,0.49
4,A54U A116G,0.83
5,U57C A59G,0.57
6,U57C A86U,1.93
7,A55G A63C,0.12
8,A55G A95C,1.02
9,A56G A110G,0.07
10,U57C A135G,1.34
11,A56G U100C,2.18
12,A56G U108C,0.01
13,U57A U132A,0.7
14,A54U U102C,1.59
15,A54G U139C,1.68
16,A54G U72C,0.23
17,A54G U72A,0.19
18,A55G A98C,1.25
19,A54G A134G,1.2
20,A55G A114G,0.32
21,U57C C105U,0.15

row,Variant,self-cleavage
1,A54G A78U,0.26
2,A55C U57A,1.84
3,A54G A125G,0.81
4,A55C A78C,0.25
5,A54G G136U,2.55
6,A55C A59U,1.8
7,A55G A92U,1.65
8,A55U U102A,1.44
9,A55U U102C,1.73
10,U57C A64G,0.81
11,U57A U139A,0.91
12,U57A C105U,0.04
13,A56G U120C,0.89
14,A56G U120G,1.98
15,A55G A126U,0.86
16,A55G A126G,0.33
17,A54G A86U,1.71
18,A54U A82U,0.24
19,A54G G123A,1.14
20,U57C A92G,0.71
21,A56U U130C,0.34

row,Variant,self-cleavage
1,A56G U57A,1.53
2,A55G U130A,0.52
3,A55C A129G,1.2
4,A55C U103A,0.38
5,A54G C85A,0.82
6,A54G A126U,0.42
7,A55C A126G,1.09
8,A55U U133A,1.58
9,U57A A63G,1.7
10,A56U A96C,0.35
11,A54G A82G,0.61
12,A54G A82U,0.26
13,A55G U120C,0.85
14,A54G A129G,0.58
15,A54G A129C,0.76
16,U57C A114C,0.04
17,U57C A114U,0.05
18,A56G A95G,1.69
19,A54G U108C,0.02
20,A55G U127A,1.65
21,U57C A111U,0.08
